# B1: 070517-G02 (protein)
# chain: MALPVTALLLPLALLLHAARPLETPFPSLAPPIMLLVDGKQQMVVVCLVLDVAPPGLDSPIWFSAGNGSALDAFTYGPSPATDGTWTNLAHLSLPSEELASWEPLVCHTGPGAEGHSRSTQPMHLSGEASTARTCPQEPLRGTPGGALWLGVLRLLLFKLLLFDLLLTCSCLCDPAGPLPSPATTTRLRALGSHRLHPATETGGREATSSPRPQPRDRRWGDTPPGRKPGSPVRAKRSGSGVKQTLNFDLLKLAGDVESNPGPTSTMALPVTALLLPLALLLHAARPDIQMTQSPSSLSASVGDRVTITCKASDHINNWLAWYQQKPGQAPKLLIYGATTLETGVPSRFSGSGSGTDYTLTISSLQPEDFATYYCQQSWNTPWTFGQGTKLEIKRGGGGSGGGGSGGGGSQVQLQQPGAELVKPGASVKMSCKASGYAFSSYWINWMKQKPGQGLEWIGQIYPGDGDTNYNGKFKGRATLTADTSSSTAYMQLSSLTSEDSAVYFCARSITTVVGCAMDYWGQGTSVTVSSTRGKPIPNPLLGLDSTGSGEDLKNVFPPEVAVFEPSEAEISHTQKATLVCLATGFYPDHVELSWWVNGKEVHSGVCTDPQPLKEQPALNDSRYCLSSRLRVSATFWQNPRNHFRCQVQFYGLSENDEWTQDRAKPVTQIVSAEAWGRADCGFTSESYQQGVLSATILYEILLGKATLYAVLVSALVLMAMVKRKDSRGRAKRSGSGATNFSLLKQAGDVEENPGPSRGHMTEYKPTVRLATRDDVPRAVRTLAAAFADYPATRHTVDPDRHIERVTELQELFLTRVGLDIGKVWVADDGAAVAVWTTPESVEAGAVFAEIGPRMAELSGSRLAAQQQMEGLLAPHRPKEPAWFLATVGVSPDHQGKGLGSAVVLPGVEAAERAGVPAFLETSAPRNLPFYERLGFTVTADVEVPEGPRTWCMTRKPGA
# B2: 070517-H02 (protein)
# chain: MALPVTALLLPLALLLHAARPLEGKPIPNPLLGLDSTGSGEDLKNVFPPEVAVFEPSKAEIAHTQKATLVCLATGFYPDHVELSWWVNGKEVHSGVCTDPQPLKEQPALNDSRYCLSSRLRVSATFWQNPRNHFRCQVQFYGLSENDEWTQDRAKPVTQIVSAEAWGRADCGITSASYHQGVLSATILYEILLGKATLYAVLVSALVLMAMVKRKDSRGRAKRSGSGATNFSLLKQAGDVEENPGPTSMALPVTALLLPLALLLHAARPDIQMTQSPSSLSASVGDRVTITCKASDHINNWLAWYQQKPGQAPKLLIYGATTLETGVPSRFSGSGSGTDYTLTISSLQPEDFATYYCQQSWNTPWTFGQGTKLEIKRGGGGSGGGGSGGGGSQVQLQQPGAELVKPGASVKMSCKASGYAFSSYWINWMKQKPGQGLEWIGQIYPGDGDTNYNGKFKGRATLTADTSSSTAYMQLSSLTSEDSAVYFCARSITTVVGCAMDYWGQGTSVTVSSTREQKLISEEDGSGIQNPDPAVYQLRDSKSSDKSVCLFTDFDSQTNVSQSKDSDVYITDKCVLDMRSMDFKSNSAVAWSNKSDFACANAFNNSIIPEDTFFPSSDVPCDVKLVEKSFETDTNLNFQNLSVIGFRILLLKVAGFNLLMTLRLWSSRAKRSGSGVKQTLNFDLLKLAGDVESNPGPSRGHMTEYKPTVRLATRDDVPRAVRTLAAAFADYPATRHTVDPDRHIERVTELQELFLTRVGLDIGKVWVADDGAAVAVWTTPESVEAGAVFAEIGPRMAELSGSRLAAQQQMEGLLAPHRPKEPAWFLATVGVSPDHQGKGLGSAVVLPGVEAAERAGVPAFLETSAPRNLPFYERLGFTVTADVEVPEGPRTWCMTRKPGA
# B3: 022817-K08 (protein)
# chain: MALPVTALLLPLALLLHAARPQIVLTQSPATLSASPGEKATMTCSASSGVNYMHWYQQKPGTSPKRWIYDTDKTASGVPARFSGSGSGTSYSLTISSMEAEDAATYYCHQRGSYTFGGGTKLEIKLEEQKLISEEDLGSGEDLKNVFPPEVAVFEPSKAEIAHTQKATLVCLATGFYPDHVELSWWVNGKEVHSGVCTDPQPLKEQPALNDSRYCLSSRLRVSATFWQNPRNHFRCQVQFYGLSENDEWTQDRAKPVTQIVSAEAWGRADCGITSASYHQGVLSATILYEILLGKATLYAVLVSALVLMAMVKRKDSRGRAKRSGSGATNFSLLKQAGDVEENPGPTSMDWIWRILFLVGAATGAHSFEQVQLEQPGAEVVKPGASVKVSCKTSGYTFTSNWMHWVKQTPGKGLEWIGEIDPSDSYTNYNQKFDGKAKLTVDKSSSTAYMEVSDLTAEDSATYYCARGSNPYYYAMDYWGQGTSVTVSSTREQKLISEEDLGSGIQNPDPAVYQLRDSKSSDKSVCLFTDFDSQTNVSQSKDSDVYITDKCVLDMRSMDFKSNSAVAWSNKSDFACANAFNNSIIPEDTFFPSSDVPCDVKLVEKSFETDTNLNFQNLSVIGFRILLLKVAGFNLLMTLRLWSSRAKRSGSGVKQTLNFDLLKLAGDVESNPGPSRGHMTEYKPTVRLATRDDVPRAVRTLAAAFADYPATRHTVDPDRHIERVTELQELFLTRVGLDIGKVWVADDGAAVAVWTTPESVEAGAVFAEIGPRMAELSGSRLAAQQQMEGLLAPHRPKEPAWFLATVGVSPDHQGKGLGSAVVLPGVEAAERAGVPAFLETSAPRNLPFYERLGFTVTADVEVPEGPRTWCMTRKPGA
# B4: 022817-J01 (protein)
# chain: MALPVTALLLPLALLLHAARPLEGKPIPNPLLGLDSTGSGEDLKNVFPPEVAVFEPSKAEIAHTQKATLVCLATGFYPDHVELSWWVNGKEVHSGVCTDPQPLKEQPALNDSRYCLSSRLRVSATFWQNPRNHFRCQVQFYGLSENDEWTQDRAKPVTQIVSAEAWGRADCGITSASYHQGVLSATILYEILLGKATLYAVLVSALVLMAMVKRKDSRGRAKRSGSGATNFSLLKQAGDVEENPGPTSMALPVTALLLPLALLLHAARPQIVLTQSPATLSASPGEKATMTCSASSGVNYMHWYQQKPGTSPKRWIYDTDKTASGVPARFSGSGSGTSYSLTISSMEAEDAATYYCHQRGSYTFGGGTKLEIKGGGGSGGGGSGGGGSQVQLEQPGAEVVKPGASVKVSCKTSGYTFTSNWMHWVKQTPGKGLEWIGEIDPSDSYTNYNQKFDGKAKLTVDKSSSTAYMEVSDLTAEDSATYYCARGSNPYYYAMDYWGQGTSVTVSSTREQKLISEEDGSGIQNPDPAVYQLRDSKSSDKSVCLFTDFDSQTNVSQSKDSDVYITDKCVLDMRSMDFKSNSAVAWSNKSDFACANAFNNSIIPEDTFFPSSDVPCDVKLVEKSFETDTNLNFQNLSVIGFRILLLKVAGFNLLMTLRLWSSRAKRSGSGVKQTLNFDLLKLAGDVESNPGPSRGHMTEYKPTVRLATRDDVPRAVRTLAAAFADYPATRHTVDPDRHIERVTELQELFLTRVGLDIGKVWVADDGAAVAVWTTPESVEAGAVFAEIGPRMAELSGSRLAAQQQMEGLLAPHRPKEPAWFLATVGVSPDHQGKGLGSAVVLPGVEAAERAGVPAFLETSAPRNLPFYERLGFTVTADVEVPEGPRTWCMTRKPGA
# B5: 020817-U02 (protein)
# chain: MALPVTALLLPLALLLHAARPLEGKPIPNPLLGLDSTGSGEDLKNVFPPEVAVFEPSKAEIAHTQKATLVCLATGFYPDHVELSWWVNGKEVHSGVCTDPQPLKEQPALNDSRYCLSSRLRVSATFWQNPRNHFRCQVQFYGLSENDEWTQDRAKPVTQIVSAEAWGRADCGITSASYHQGVLSATILYEILLGKATLYAVLVSALVLMAMVKRKDSRGRAKRSGSGATNFSLLKQAGDVEENPGPTSMALPVTALLLPLALLLHAARPDILLTQSPATLSLSPGERATLSCRASQSVDNYGISFMNWYQQKPGQPPKLLIYAASNQGSGIPSRFSGSGSGTDFTLTISSLEPEDFAMYFCQQSNEVPRTFGGGTKLEIKGGGGSGGGGSGGGGSQVQLVESGGGLVEPGGSLRLSCMSGYAFSSSWMNWVRQMPGKGLEWMGRIYPGDGDTNYNGKFKERVTITADESTSTAYMELSSLKAEDTAVYFCARSEYWGNYWAMDYWGQGTLVTVSSTREQKLISEEDGSGIQNPDPAVYQLRDSKSSDKSVCLFTDFDSQTNVSQSKDSDVYITDKCVLDMRSMDFKSNSAVAWSNKSDFACANAFNNSIIPEDTFFPSSDVPCDVKLVEKSFETDTNLNFQNLSVIGFRILLLKVAGFNLLMTLRLWSSRAKRSGSGVKQTLNFDLLKLAGDVESNPGPSRGHMTEYKPTVRLATRDDVPRAVRTLAAAFADYPATRHTVDPDRHIERVTELQELFLTRVGLDIGKVWVADDGAAVAVWTTPESVEAGAVFAEIGPRMAELSGSRLAAQQQMEGLLAPHRPKEPAWFLATVGVSPDHQGKGLGSAVVLPGVEAAERAGVPAFLETSAPRNLPFYERLGFTVTADVEVPEGPRTWCMTRKPGA
# B6: 020717-P08 (protein)
# chain: MALPVTALLLPLALLLHAARPDILLTQSPATLSLSPGERATLSCKASQNVGTNVAWYQQKPGQPPKLLIYSATYRNSGIPARFSGSGSGTEFTLTITNVQSKDLADYFYFCQYNRYPYTSGGGTKLEIKRLEGKPIPNPLLGLDSTGSGEDLKNVFPPEVAVFEPSKAEIAHTQKATLVCLATGFYPDHVELSWWVNGKEVHSGVCTDPQPLKEQPALNDSRYCLSSRLRVSATFWQNPRNHFRCQVQFYGLSENDEWTQDRAKPVTQIVSAEAWGRADCGITSASYHQGVLSATILYEILLGKATLYAVLVSALVLMAMVKRKDSRGRAKRSGSGATNFSLLKQAGDVEENPGPTSMDWIWRILFLVGAATGAHSFEQVQLVESGGGLVEPGGSLRLSCMSGYAFSSYWMNWVRQMPGKGLEWMGQIYPGDGDTNYNGKFKGRVTITADESTSTAYMELSSLKAEDTAVYFCARKTISSVVDFYFDNWGQGTLVTVSSAEPKSPDKTHTCPPCPKDPKTREQKLISEEDLGSGIQNPDPAVYQLRDSKSSDKSVCLFTDFDSQTNVSQSKDSDVYITDKCVLDMRSMDFKSNSAVAWSNKSDFACANAFNNSIIPEDTFFPSSDVPCDVKLVEKSFETDTNLNFQNLSVIGFRILLLKVAGFNLLMTLRLWSSRAKRSGSGVKQTLNFDLLKLAGDVESNPGPSRGHMTEYKPTVRLATRDDVPRAVRTLAAAFADYPATRHTVDPDRHIERVTELQELFLTRVGLDIGKVWVADDGAAVAVWTTPESVEAGAVFAEIGPRMAELSGSRLAAQQQMEGLLAPHRPKEPAWFLATVGVSPDHQGKGLGSAVVLPGVEAAERAGVPAFLETSAPRNLPFYERLGFTVTADVEVPEGPRTWCMTRKPGA
# Test system: target antigen-expressing cell line
# Assay: Jurkat NFAT-GFP assay, coculture with target cell lines expressing the respective target antigen (summary Table 10A)
# Format: cell-based, human
# Design: key: The signs +/−, +, 2+ etc. after the name of the cell lines indicate the relative degree of positivity on the Jurkat-NFAT-GFP assay as measured by the % GFP positive cells; +: relative degree of positivity on the Jurkat-NFAT-GFP assay as measured by the % GFP positive cells; 2+: relative degree of positivity on the Jurkat-NFAT-GFP assay as measured by the % GFP positive cells
# Conditions: SIR-expressing Jurkat-NFAT-GFP cells cocultured with NALM6; relative % GFP positive cells
# Procedure, shortened: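 Positivity is scored when SIR-expressing reporter Jurkat cells show more GFP-positive cells than parental controls after coculture with the antigen-bearing line. Effector-to-target ratio is about 1:2, coculture lasts roughly 4–18 hours, and GFP is quantified by FACS.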
row,Molecule,NFAT-GFP ASSAY Positive Cell lines: NALM6
1,B1,(+/−)
2,B2,(+)
3,B3,(+/−)
4,B4,(+/−)
5,B5,(+/−)

# Same assay, conditions: SIR-expressing Jurkat-NFAT-GFP cells cocultured with RAJI; relative % GFP positive cells
row,Molecule,NFAT-GFP ASSAY Positive Cell lines: RAJI
1,B1,"RAJI (+), NALM6"
2,B2,"RAJI (2+), NALM6"
3,B3,"RAJI (+), NALM6"
4,B4,"RAJI (+), NALM6"
5,B6,RAJI (+)
6,B5,"RAJI (+), NALM6"

# From patent US12269859B2, “Synthetic immune receptors and methods of use thereof” (Angeles Therapeutics, Inc., priority 2016, dated 2025)
